Measured values as given in the RNAGym collection of RNA variant scans (doi:10.1021/acssynbio.7b00057).

B1: Pistol ribozyme (parent)
chain: GGGUCGUUGUUCCAUAAUCGCGUGGAUAUGGCACGCAAGUUUCUACCGGGCACCGUAAAUGUCCGACUGGAGCCGUUCGGGCGGCUAUAAACAGACCUCAGGCCCGAAGCGUGGCGGCACCUGCCGCCGGUGGUAAAAAAGAUCGGAAGAGCACACGUCU

Variants of: B1
Assay: aptazyme ON/OFF ratio, guanine; higher = stronger switching; co-transcriptional cleavage with and without guanine

Point of comparison: U7G G9C U10G C12U C13G, “aptazyme ON/OFF ratio” value 1.38. Against it:
- U7G G9U U10A U11C C12A C13G — lower, 1.21
- U7G G9U U10A U11C C12A C13A — lower, 1.24
- U7G G9U U10A U11C C12A C13U — higher, 1.46
- U7G G9C U11C C12G — higher, 1.65
- U7G G9C U11C C12U — higher, 2.15
- U7G G9C U11C C12A — higher, 2.21
- U7G G9C U10C C13U — higher, 1.47
- U7G G9C U10C C13G — lower, 1.09
- U7G G9C U10C C13A — lower, 1.14
- U7G G9C U11G C12A C13G — lower, 1.31
- U7G G9C U11G C12A C13U — higher, 1.47
- U7G G9C U11G C12A C13A — lower, 1.21
- U7G G9C U10G U11C C12U C13G — lower, 1.26
- U7G G9C U10G U11C C12U C13A — lower, 1.29
- U7G G9C U10G U11C C12U C13U — lower, 1.19
- U7G G9C U10C U11C — lower, 1.17
- U7G G9C U10C U11A — higher, 1.65
- U7G G9C U10C U11G — lower, 1.18
- U7G G9U U10A C13A — higher, 1.44
- U7G G9U U10A C13U — lower, 1.35
- U7G G9U U10A C13G — lower, 1.18
- U7G G9U U10C C12U C13U — lower, 1.34
- U7G G9U U10C C12U C13A — the same, 1.38
- U7G G9U U10C C12U C13G — lower, 1.31
- U7G G9C U10G U11G C13U — lower, 1.36
- U7G G9C U10G U11G C13A — lower, 1.17
- U7G G9C U10G U11G C13G — lower, 1.21
- U7G G9U U10A U11A C12G C13A — lower, 1.13
- U7G G9U U10A U11A C12G C13U — higher, 1.42
- U7G G9U U10A U11A C12G C13G — lower, 1.11
- U7G G9C U10G U11G C12U C13G — lower, 1.1
- U7G G9C U10G U11G C12U C13U — lower, 1.24
- U7G G9C U10G U11G C12U C13A — lower, 1.15
- U7G G9U U10A C12U C13U — lower, 1.15
- U7G G9U U10A C12U C13A — lower, 1.06
- U7G G9U U10A C12U C13G — lower, 1.14
- U7G G9U C12A — higher, 1.97
- U7G G9U C12G — higher, 1.42
- U7G G9U C12U — higher, 2.07
- U7G G9C U10A C13U — lower, 1.16
- U7G G9C U10A C13A — lower, 1.2
- U7G G9C U10A C13G — lower, 1.07
- U7G G9C U11A C12G C13U — lower, 1.36
- U7G G9C U11A C12G C13G — lower, 1.23
- U7G G9C U11A C12G C13A — lower, 1.2
- U7G G9C U11G C13G — lower, 1.31
- U7G G9C U11G C13A — lower, 1.29
- U7G G9C U11G C13U — lower, 1.17
- U7G G9C U10G C12U C13U — lower, 1.13
- U7G G9C U10G C12U C13A — lower, 1.24
- U7G G9U C12G C13A — lower, 1.16
- U7G G9U C12G C13U — lower, 1.36
- U7G G9U C12G C13G — lower, 1.22
- U7G G9U C13A — the same, 1.38
- U7G G9U C13G — lower, 1.2
- U7G G9U C13U — higher, 1.45
- U7G G9U C12U C13U — lower, 1.18
- U7G G9U C12U C13A — lower, 1.28
- U7G G9U C12U C13G — lower, 1.31
- U7G G9C U10G U11G C12U — lower, 1.32
- U7G G9C U10G U11G C12A — lower, 1.05
- U7G G9C U10G U11G C12G — lower, 1.07
- U7G G9C U10A C12A C13U — lower, 1.2
- U7G G9C U10A C12A C13A — lower, 1.2
- U7G G9C U10A C12A C13G — lower, 1.09
- U7G G9C U10C U11A C12U C13U — lower, 1.32
- U7G G9C U10C U11A C12U C13G — lower, 1.21
- U7G G9C U10C U11A C12U C13A — lower, 1.18
- U7G G9C U10G U11A C12G C13U — lower, 1.28
- U7G G9C U10G U11A C12G C13A — lower, 1.14
- U7G G9C U10G U11A C12G C13G — lower, 1.18
- U7G G9U U10A C12U — higher, 1.54
- U7G G9U U10A C12G — higher, 1.59
- U7G G9U U10A C12A — higher, 1.65
- U7G G9C U10C U11A C12A — higher, 1.46
- U7G G9C U10C U11A C12G — lower, 1.31
- U7G G9C U10C U11A C12U — higher, 1.4
- U7G G9C U11G C12U C13G — lower, 1.27
- U7G G9C U11G C12U C13A — higher, 1.43
- U7G G9C U11G C12U C13U — lower, 1.2
- U7G G9C U10C U11C C12A — lower, 1.03
- U7G G9C U10C U11C C12U — lower, 1.06
- U7G G9C U10C U11C C12G — lower, 1.14
